Results as given in patent US20230136228A1 (LAMKAP BIO ALPHA, published 2023).

T1: human CEACAM5 (carcinoembryonic antigen, CEA), cell surface (human, UniProt P06731 35-685)
T1 construct: whole, on cells; also called CD66e
T1 sequence (looked up): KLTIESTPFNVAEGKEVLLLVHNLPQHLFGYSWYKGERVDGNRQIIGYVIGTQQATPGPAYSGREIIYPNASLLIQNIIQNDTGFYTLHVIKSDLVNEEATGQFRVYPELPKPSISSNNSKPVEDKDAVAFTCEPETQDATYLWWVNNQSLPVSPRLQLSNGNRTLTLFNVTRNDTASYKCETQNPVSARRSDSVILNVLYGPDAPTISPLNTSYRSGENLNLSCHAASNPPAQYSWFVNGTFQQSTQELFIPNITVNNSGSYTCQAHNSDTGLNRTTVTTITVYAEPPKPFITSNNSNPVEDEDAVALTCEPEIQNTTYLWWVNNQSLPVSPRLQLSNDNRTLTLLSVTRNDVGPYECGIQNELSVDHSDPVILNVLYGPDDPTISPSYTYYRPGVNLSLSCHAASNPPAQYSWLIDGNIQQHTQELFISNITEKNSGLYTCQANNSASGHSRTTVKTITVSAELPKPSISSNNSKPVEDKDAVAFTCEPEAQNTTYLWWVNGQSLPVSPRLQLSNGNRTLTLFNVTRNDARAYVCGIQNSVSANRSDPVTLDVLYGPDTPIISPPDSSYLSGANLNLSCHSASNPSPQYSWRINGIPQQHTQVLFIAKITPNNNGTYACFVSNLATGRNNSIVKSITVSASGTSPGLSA

B1: AB14L3-1/N (bispecific antibody, human IgG1, kappa, lambda, L234A L235A)
heavy: EVQLVESGGGLVQPGGSLKLSCAASGFTFNTYAMNWVRQAPGKGLEWVGRIRSKYNNYATYYADSVKDRFTISRDDSKNTAYLQMNSLKTEDTAVYYCVRHGNFGNSYVSWFAYWGQGTLVTVSSASTKGPSVFPLAPSSKSTSGGTAALGCLVKDYFPEPVTVSWNSGALTSGVHTFPAVLQSSGLYSLSSVVTVPSSSLGTQTYICNVNHKPSNTKVDKRVEPKSCDKTHTCPPCPAPEAAGGPSVFLFPPKPKDTLMISRTPEVTCVVVDVSHEDPEVKFNWYVDGVEVHNAKTKPREEQYNSTYRVVSVLTVLHQDWLNGKEYKCKVSNKALAAPIEKTISKAKGQPREPQVYTLPPSREEMTKNQVSLTCLVKGFYPSDIAVEWESNGQPENNYKTTPPVLDSDGSFFLYSKLTVDKSRWQQGNVFSCSVMHEALHNHYTQKSLSLSPG
light 1: EIVLTQSPATLSLSPGERATLSCRASQSVNSNLNWYQQKPGQAPRLLIYHGSNRATGIPARFSGSGSGTDFTLTISSLEPEDFAVYYCQQFDYFRESNTFGQGTKVEIKRTVAAPSVFIFPPSDEQLKSGTASVVCLLNNFYPREAKVQWKVDNALQSGNSQESVTEQDSKDSTYSLSSTLTLSKADYEKHKVYACEVTHQGLSSPVTKSFNRGEC
light 2: QTVVTQEPSLTVSPGGTVTLTCRSSTGAVTTSNYANWFQQKPGQAPRGLIGGTNKRAPGTPARFSGSLLGGKAALTLSGAQPEDEAEYYCALWYKQRWVFGGGTKLTVLGQPKAAPSVTLFPPSSEELQANKATLVCLISDFYPGAVTVAWKADSSPVKAGVETTTPSKQSNNKYAASSYLSLTPEQWKSHRSYSCQVTHEGSTVEKTVAPTECS
notes: Kappa-lambda body, lead optimization wave 1
B2: AB15L3-1/N (bispecific antibody, human IgG1, kappa, lambda, L234A L235A)
heavy: EVQLVESGGGLVQPGGSLKLSCAASGFTFNTYAMNWVRQAPGKGLEWVGRIRSKYNNYATYYADSVKDRFTISRDDSKNTAYLQMNSLKTEDTAVYYCVRHGNFGNSYVSWFAYWGQGTLVTVSSASTKGPSVFPLAPSSKSTSGGTAALGCLVKDYFPEPVTVSWNSGALTSGVHTFPAVLQSSGLYSLSSVVTVPSSSLGTQTYICNVNHKPSNTKVDKRVEPKSCDKTHTCPPCPAPEAAGGPSVFLFPPKPKDTLMISRTPEVTCVVVDVSHEDPEVKFNWYVDGVEVHNAKTKPREEQYNSTYRVVSVLTVLHQDWLNGKEYKCKVSNKALAAPIEKTISKAKGQPREPQVYTLPPSREEMTKNQVSLTCLVKGFYPSDIAVEWESNGQPENNYKTTPPVLDSDGSFFLYSKLTVDKSRWQQGNVFSCSVMHEALHNHYTQKSLSLSPG
light 1: EIVLTQSPATLSLSPGERATLSCRASQTVNNNLNWYQQKPGQSPRLLIYYASNRATGIPARFSGSGSGTDFTLTISSLEPEDFAVYYCQQFNYHHEHNTFGQGTKVEIKRTVAAPSVFIFPPSDEQLKSGTASVVCLLNNFYPREAKVQWKVDNALQSGNSQESVTEQDSKDSTYSLSSTLTLSKADYEKHKVYACEVTHQGLSSPVTKSFNRGEC
light 2: QTVVTQEPSLTVSPGGTVTLTCRSSTGAVTTSNYANWFQQKPGQAPRGLIGGTNKRAPGTPARFSGSLLGGKAALTLSGAQPEDEAEYYCALWYKQRWVFGGGTKLTVLGQPKAAPSVTLFPPSSEELQANKATLVCLISDFYPGAVTVAWKADSSPVKAGVETTTPSKQSNNKYAASSYLSLTPEQWKSHRSYSCQVTHEGSTVEKTVAPTECS
notes: as for B1
B3: AB20L3-1/N (bispecific antibody, human IgG1, kappa, lambda, L234A L235A)
heavy: EVQLVESGGGLVQPGGSLKLSCAASGFTFNTYAMNWVRQAPGKGLEWVGRIRSKYNNYATYYADSVKDRFTISRDDSKNTAYLQMNSLKTEDTAVYYCVRHGNFGNSYVSWFAYWGQGTLVTVSSASTKGPSVFPLAPSSKSTSGGTAALGCLVKDYFPEPVTVSWNSGALTSGVHTFPAVLQSSGLYSLSSVVTVPSSSLGTQTYICNVNHKPSNTKVDKRVEPKSCDKTHTCPPCPAPEAAGGPSVFLFPPKPKDTLMISRTPEVTCVVVDVSHEDPEVKFNWYVDGVEVHNAKTKPREEQYNSTYRVVSVLTVLHQDWLNGKEYKCKVSNKALAAPIEKTISKAKGQPREPQVYTLPPSREEMTKNQVSLTCLVKGFYPSDIAVEWESNGQPENNYKTTPPVLDSDGSFFLYSKLTVDKSRWQQGNVFSCSVMHEALHNHYTQKSLSLSPG
light 1: EIVLTQSPATLSLSPGERATLSCRASQSVNSNLNWYQQKPGQAPRLLIYHGSNRATGIPARFSGSGSGTDFTLTISSLEPEDFAVYYCQQFDYFRELNTFGQGTKVEIKRTVAAPSVFIFPPSDEQLKSGTASVVCLLNNFYPREAKVQWKVDNALQSGNSQESVTEQDSKDSTYSLSSTLTLSKADYEKHKVYACEVTHQGLSSPVTKSFNRGEC
light 2: QTVVTQEPSLTVSPGGTVTLTCRSSTGAVTTSNYANWFQQKPGQAPRGLIGGTNKRAPGTPARFSGSLLGGKAALTLSGAQPEDEAEYYCALWYKQRWVFGGGTKLTVLGQPKAAPSVTLFPPSSEELQANKATLVCLISDFYPGAVTVAWKADSSPVKAGVETTTPSKQSNNKYAASSYLSLTPEQWKSHRSYSCQVTHEGSTVEKTVAPTECS
notes: as for B1

Legend:
[1] = biological target: T1, human CEACAM5 (carcinoembryonic …); assay: flow cytometry, MKN-45 and/or HPAF-II cells
human CD3ε = biological target: T2, human CD3ε (human, UniProt P07766 23-207); assay: flow cytometry, HUT-78 cells
T2 construct: whole, on cells; Present on cells as part of the CD3/TCR complex; also called CD3 epsilon
T2 sequence (P07766 23-207): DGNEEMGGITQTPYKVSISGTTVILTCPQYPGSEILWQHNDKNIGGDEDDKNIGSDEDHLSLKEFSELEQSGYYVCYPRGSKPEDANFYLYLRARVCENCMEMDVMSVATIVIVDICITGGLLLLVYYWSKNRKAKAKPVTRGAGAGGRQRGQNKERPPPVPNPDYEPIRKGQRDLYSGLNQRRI

Binder | binding higher than TCB2014 (at 100 nM) [1] [%] | binding result (human CD3ε)
B1 | ≥ 40 | binds
B2 | ≥ 40 | binds
B3 | ≥ 40 | binds
